Target: T1, SOS vector alone (hSOS without GRAIL) (human, UniProt Q07889 1-1066)
T1 construct: Negative control bait of the yeast two-hybrid screen
T1 sequence (looked up): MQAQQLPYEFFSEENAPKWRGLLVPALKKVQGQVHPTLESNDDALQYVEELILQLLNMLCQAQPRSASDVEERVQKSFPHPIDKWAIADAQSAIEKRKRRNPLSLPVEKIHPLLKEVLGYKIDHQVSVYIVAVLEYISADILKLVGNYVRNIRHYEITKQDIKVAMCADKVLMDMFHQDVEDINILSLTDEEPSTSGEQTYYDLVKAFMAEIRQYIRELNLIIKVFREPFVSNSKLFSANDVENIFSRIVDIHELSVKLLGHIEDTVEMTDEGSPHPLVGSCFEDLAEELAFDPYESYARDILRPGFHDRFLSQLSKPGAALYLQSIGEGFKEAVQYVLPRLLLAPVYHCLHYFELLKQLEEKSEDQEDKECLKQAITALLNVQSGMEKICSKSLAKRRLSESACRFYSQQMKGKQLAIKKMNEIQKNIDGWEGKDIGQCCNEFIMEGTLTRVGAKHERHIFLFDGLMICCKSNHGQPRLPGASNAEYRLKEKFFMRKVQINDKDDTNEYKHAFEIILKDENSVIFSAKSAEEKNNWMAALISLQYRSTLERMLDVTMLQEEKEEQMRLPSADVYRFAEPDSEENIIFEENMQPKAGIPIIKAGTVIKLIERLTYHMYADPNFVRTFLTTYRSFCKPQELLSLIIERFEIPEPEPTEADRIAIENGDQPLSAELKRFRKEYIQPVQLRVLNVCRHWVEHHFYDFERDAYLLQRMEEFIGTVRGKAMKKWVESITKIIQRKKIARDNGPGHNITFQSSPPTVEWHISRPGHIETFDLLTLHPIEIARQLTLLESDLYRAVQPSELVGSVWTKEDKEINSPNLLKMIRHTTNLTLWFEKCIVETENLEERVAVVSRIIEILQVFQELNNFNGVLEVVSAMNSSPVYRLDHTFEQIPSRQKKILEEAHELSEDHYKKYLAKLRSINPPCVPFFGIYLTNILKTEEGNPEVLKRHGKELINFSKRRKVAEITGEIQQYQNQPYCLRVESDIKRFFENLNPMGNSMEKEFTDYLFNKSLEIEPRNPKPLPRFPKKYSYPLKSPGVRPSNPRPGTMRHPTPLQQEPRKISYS
Assay: yeast two-hybrid (CytoTrap), secondary screen, growth on galactose at 37 C
Description: Table I: A mouse liver library cloned into pMyr vector was purchased from Stratagene (La Jolla, CA). The C-terminal half of GRAIL, starting at F225 was PCR amplified, cloned into the pSOS vector, and used as bait. Yeast competent cells were co-transformed with either the bait and library or control vectors as described in the CytoTrap instruction manual (Stratagene). More than 5 x 10^5 clones were screened. Colonies displaying growth on galactose but not glucose at 37° C. were considered to be putative positives and were evaluated in a secondary screen. Colonies growing in the secondary screen on galactose at 37° C. and in the presence of the GRAIL-SOS bait vector, but not the SOS vector alone, were considered true interactors and sequenced.
Yeast and bacterial two-hybrid analysis. A mouse liver library cloned into pMyr vector was purchased from Stratagene (La Jolla, Calif.). The C-terminal half of Grail, starting at F225, was PCR amplified, cloned into the pSOS vector, and used as bait. Yeast competent cells were co-transformed with either the bait and library or control vectors as described in the CytoTrap instruction manual (Stratagene). More than 5 ×10^5 clones were screened. Colonies displaying growth on galactose but not glucose at 37° C. were considered to be putative positives and were used on a secondary screen. […]

binding result: no binding
B1: clone 6A-36 (98% identical to human FLJ20113, OTUBAIN-1) (enzyme, mouse, UniProt Q7TQI3 97-271, looked up)
chain: GFSHLEALLDDSKELQRFKAVSAKSKEDLVSQGFTEFTIEDFHNTFMDLIEQVEKQTSVADLLASFNDQSTSDYLVVYLRLLTSGYLQRESKFFEHFIEGGRTVKEFCQQEVEPMCKESDHIHIIALAQALSVSIQVEYMDRGEGGTTNPHVFPEGSEPKVYLLYRPGHYDILYK
notes: Partial clone of mouse otubain-1; also called 525 bp insert; 525 bp cDNA fragment; not shown: myristoylation signal of the pMyr plasmid

From patent US7964369 (Stanford University, dated 2011)
